# Source: PMC3716637, “Characterization of the Recombinant Exopeptidases PepX and PepN from Lactobacillus helveticus ATCC 12046 Important for Food Protein Hydrolysis” (PLoS ONE, 2013)
# Like-named read-outs stand apart in the source and are kept apart here. Residues, ends and D or L forms follow the SMILES beside them.
# T1: PepN (general aminopeptidase N) (Lactobacillus helveticus, UniProt S4THV9)
# T1 construct: His-tagged recombinant full-length PepN (monomer)
# T1 sequence (S4THV9 1-844): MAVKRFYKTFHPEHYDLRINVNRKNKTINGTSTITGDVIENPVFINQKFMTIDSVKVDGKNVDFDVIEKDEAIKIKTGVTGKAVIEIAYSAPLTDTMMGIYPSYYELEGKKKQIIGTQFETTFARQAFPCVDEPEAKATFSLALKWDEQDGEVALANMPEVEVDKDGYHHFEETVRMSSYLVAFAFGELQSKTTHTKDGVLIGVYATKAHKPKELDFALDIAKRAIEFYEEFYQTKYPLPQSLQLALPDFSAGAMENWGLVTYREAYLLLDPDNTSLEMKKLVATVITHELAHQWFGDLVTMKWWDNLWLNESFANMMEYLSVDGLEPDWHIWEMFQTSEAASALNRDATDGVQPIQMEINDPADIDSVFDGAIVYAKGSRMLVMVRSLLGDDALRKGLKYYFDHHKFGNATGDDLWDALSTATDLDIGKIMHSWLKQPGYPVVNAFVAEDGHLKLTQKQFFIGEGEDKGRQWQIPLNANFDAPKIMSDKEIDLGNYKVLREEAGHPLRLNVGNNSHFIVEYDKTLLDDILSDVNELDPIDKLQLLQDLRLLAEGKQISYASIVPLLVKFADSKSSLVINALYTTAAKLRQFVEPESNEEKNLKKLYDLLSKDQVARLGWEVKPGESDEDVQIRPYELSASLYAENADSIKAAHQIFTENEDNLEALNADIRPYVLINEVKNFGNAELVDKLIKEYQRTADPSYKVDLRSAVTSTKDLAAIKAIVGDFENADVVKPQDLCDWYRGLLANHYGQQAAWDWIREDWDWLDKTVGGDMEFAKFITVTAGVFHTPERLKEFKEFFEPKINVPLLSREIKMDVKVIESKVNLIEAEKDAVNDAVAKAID
# T2: PepX (X-prolyl dipeptidyl aminopeptidase) (Lactobacillus helveticus, UniProt Q59485)
# T2 construct: His-tagged recombinant full-length PepX (homodimer)
# T2 sequence (Q59485 1-793): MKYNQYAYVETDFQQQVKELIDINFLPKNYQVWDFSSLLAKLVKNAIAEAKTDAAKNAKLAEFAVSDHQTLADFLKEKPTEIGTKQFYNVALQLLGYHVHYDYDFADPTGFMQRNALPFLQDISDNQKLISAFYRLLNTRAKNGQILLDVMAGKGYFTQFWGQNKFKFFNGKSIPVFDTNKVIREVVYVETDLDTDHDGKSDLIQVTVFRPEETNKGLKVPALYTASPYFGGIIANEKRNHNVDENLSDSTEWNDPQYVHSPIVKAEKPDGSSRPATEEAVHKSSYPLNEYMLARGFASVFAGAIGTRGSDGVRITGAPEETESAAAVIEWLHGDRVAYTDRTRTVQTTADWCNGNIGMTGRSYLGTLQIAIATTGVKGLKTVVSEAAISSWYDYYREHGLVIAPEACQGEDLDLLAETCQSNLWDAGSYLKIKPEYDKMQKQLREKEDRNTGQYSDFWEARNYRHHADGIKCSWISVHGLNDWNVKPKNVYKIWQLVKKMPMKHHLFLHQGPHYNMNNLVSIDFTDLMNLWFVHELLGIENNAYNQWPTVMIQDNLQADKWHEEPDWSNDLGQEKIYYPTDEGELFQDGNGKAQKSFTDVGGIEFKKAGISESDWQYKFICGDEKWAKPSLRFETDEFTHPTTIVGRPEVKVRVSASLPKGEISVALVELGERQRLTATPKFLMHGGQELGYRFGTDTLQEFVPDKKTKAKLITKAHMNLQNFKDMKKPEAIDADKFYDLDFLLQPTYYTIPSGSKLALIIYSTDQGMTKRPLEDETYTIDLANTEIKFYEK
# B1: PepX (X-prolyl dipeptidyl aminopeptidase) (Lactobacillus helveticus) (protein)
# chain: T2 sequence (Q59485 1-793)
# notes: His-tagged recombinant full-length PepX (homodimer)
# B2: PepN (general aminopeptidase N) (Lactobacillus helveticus) (protein)
# chain: T1 sequence (S4THV9 1-844)
# notes: His-tagged recombinant full-length PepN (monomer)
# Key:
# [1] = target: T1, PepN (general aminopeptidase N); assay: product inhibition of H-Ala-pNA hydrolysis; […] residual activity at […]; assay type: biochemical; settings: read-out: % residual activity at 10 mM
# [2] = target: T1, PepN (general aminopeptidase N); assay: as above; assay type: biochemical; settings: read-out: % residual activity at 10 mM; remark: listed apart in the source
# [3] = target: T2, PepX (X-prolyl dipeptidyl aminopeptidase); assay: product inhibition kinetics with H-Ala-Pro-pNA, Lineweaver-Burk; assay type: biochemical
# [4] = target: T2, PepX (X-prolyl dipeptidyl aminopeptidase); assay: inhibition of H-Ala-Pro-pNA hydrolysis; […] residual activity at […], […] at […]; assay type: biochemical
# [5] = substrate: C[C@H](N)C(=O)N1CCC[C@H]1C(=O)Nc1ccc([N+](=O)[O-])cc1; assay: enzyme kinetics, p-nitroaniline release, Hanes plot; Km; assay type: biochemical, Lactobacillus helveticus
# [6] = substrate: C[C@H](N)C(=O)Nc1ccc([N+](=O)[O-])cc1; assay: purified protein; assay type: biochemical, Lactobacillus helveticus; settings: Zn2+
# [7] = substrate: NCCCC[C@H](N)C(=O)Nc1ccc([N+](=O)[O-])cc1; assay: purified protein; assay type: biochemical, Lactobacillus helveticus; settings: Zn2+
# [8] = substrate: N[C@@H](Cc1ccccc1)C(=O)Nc1ccc([N+](=O)[O-])cc1; assay: purified protein; assay type: biochemical, Lactobacillus helveticus; settings: Zn2+
# [9] = substrate: CC(C)C[C@H](N)C(=O)Nc1ccc([N+](=O)[O-])cc1; assay: purified protein; assay type: biochemical, Lactobacillus helveticus; settings: Zn2+
# [10] = substrate: N=C(N)NCCC[C@H](N)C(=O)Nc1ccc([N+](=O)[O-])cc1; assay: purified protein; settings: Zn2+
molecule,measurement,setting,value
N=C(N)NCCC[C@H](N)C(=O)O [L-Arg],remaining activity at 10000 µM,[1],19%
N[C@@H](Cc1ccccc1)C(=O)O [L-Phe],remaining activity at 10000 µM,[2],24%
N[C@@H](Cc1ccccc1)C(=O)N1CCC[C@H]1C(=O)O [H-L-Phe-L-Pro-OH] (H-Phe-Pro-OH),Ki,[3],30.1 mM
O=S(=O)(F)Cc1ccccc1 [PMSF],% residual activity at 10 mM,[4],11
B1,Km,[5],1300 µM
B2,Km,[6],430 µM
same,Vmax,[6],46100 µM/min
same,Km,[7],140 µM
same,Vmax,[7],93100 µM/min
same,Km,[8],150 µM
same,Vmax,[8],15200 µM/min
same,Km,[9],170 µM
same,Vmax,[9],51100 µM/min
same,Km,[10],140 µM
